Data taken from article PMC4459817, “Vasculotide reduces endothelial permeability and tumor cell extravasation in the absence of binding to or agonistic activation of Tie2” (EMBO Molecular Medicine, 2015).

T1: human Tie2-Fc (Fc-conjugated extracellular domain of Tie2) (human, UniProt Q02763 23-748)
T1 chain: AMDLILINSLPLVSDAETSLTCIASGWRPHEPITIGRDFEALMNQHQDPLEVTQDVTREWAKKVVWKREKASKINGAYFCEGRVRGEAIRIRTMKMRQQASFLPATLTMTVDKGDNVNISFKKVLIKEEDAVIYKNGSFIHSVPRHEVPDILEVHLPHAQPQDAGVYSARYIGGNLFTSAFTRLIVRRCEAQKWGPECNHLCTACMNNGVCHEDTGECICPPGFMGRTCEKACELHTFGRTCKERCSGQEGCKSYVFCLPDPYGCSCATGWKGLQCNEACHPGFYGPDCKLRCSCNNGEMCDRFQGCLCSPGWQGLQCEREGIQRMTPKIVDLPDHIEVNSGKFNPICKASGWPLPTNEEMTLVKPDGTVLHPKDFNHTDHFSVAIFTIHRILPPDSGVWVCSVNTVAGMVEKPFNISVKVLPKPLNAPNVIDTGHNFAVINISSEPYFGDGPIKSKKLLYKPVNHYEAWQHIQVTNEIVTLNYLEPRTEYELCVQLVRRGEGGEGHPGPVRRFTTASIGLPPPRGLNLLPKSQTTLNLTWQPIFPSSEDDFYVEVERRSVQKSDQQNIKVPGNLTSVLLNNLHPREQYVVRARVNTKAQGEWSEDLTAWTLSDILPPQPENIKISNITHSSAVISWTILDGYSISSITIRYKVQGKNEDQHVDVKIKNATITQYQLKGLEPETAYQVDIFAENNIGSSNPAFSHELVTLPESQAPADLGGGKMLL

T2: mouse Tie2-Fc (Fc-conjugated extracellular domain of Tie2) (mouse, UniProt Q02858 23-746)
T2 chain: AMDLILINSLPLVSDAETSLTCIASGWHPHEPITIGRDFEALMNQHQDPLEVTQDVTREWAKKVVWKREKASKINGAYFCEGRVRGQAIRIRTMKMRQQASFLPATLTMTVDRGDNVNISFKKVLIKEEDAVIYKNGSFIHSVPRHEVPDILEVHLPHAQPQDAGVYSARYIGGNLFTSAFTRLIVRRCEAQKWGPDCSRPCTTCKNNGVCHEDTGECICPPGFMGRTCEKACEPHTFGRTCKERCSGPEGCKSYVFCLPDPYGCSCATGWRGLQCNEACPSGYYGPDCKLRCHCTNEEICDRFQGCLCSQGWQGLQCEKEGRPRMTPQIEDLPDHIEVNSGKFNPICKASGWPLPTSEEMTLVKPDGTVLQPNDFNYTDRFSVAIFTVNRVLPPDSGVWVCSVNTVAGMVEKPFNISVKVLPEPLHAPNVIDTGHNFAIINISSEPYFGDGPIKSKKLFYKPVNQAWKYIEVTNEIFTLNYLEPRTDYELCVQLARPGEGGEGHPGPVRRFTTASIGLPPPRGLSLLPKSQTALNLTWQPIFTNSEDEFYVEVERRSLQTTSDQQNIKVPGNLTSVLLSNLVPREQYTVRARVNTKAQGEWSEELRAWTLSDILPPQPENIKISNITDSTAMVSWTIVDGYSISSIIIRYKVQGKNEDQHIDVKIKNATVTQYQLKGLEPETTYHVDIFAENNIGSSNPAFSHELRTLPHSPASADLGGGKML

B1: COMP-Ang1 (ligand)
chain: DLAPQMLRELQETNAALQDVRELLRHRVKEITFLKNTVMECDACGDTVHNLVNLCTKEGVLLKGGKREEEKPFRDCADVYQAGFNKSGIYTIYINNMPEPKKVFCNMDVNGGGWTVIQHREDGSLDFQRGWKEYKMGFGNPSGEYWLGNEFIFAITSQRQYMLRIELMDWEGNRAYSQYDRFHIGNEKQNYRLYLKGHTGTAGKQSSLILHGADFSTKDADNDNCMCKCALMLTGGWWFDACGPSNLNGMFYTAGQNHGKLNGIKWHYFKGPSYSLRSTTMMIRPLDF
B2: BowAng1 (Ang-F1-Fc-F1) (ligand)
chain: RDCADVYQAGFNKSGIYTIYINNMPEPKKVFCNMDVNGGGWTVIQHREDGSLDFQRGWKEYKMGFGNPSGEYWLGNEFIFAITSQRQYMLRIELMDWEGNRAYSQYDRFHIGNEKQNYRLYLKGHTGTAGKQSSLILHGADFSTKDADNDNCMCKCALMLTGGWWFDACGPSNLNGMFYTAGQNHGKLNGIKWHYFKGPSYSLRSTTMMIRPLDFRDCADVYQAGFNKSGIYTIYINNMPEPKKVFCNMDVNGGGWTVIQHREDGSLDFQRGWKEYKMGFGNPSGEYWLGNEFIFAITSQRQYMLRIELMDWEGNRAYSQYDRFHIGNEKQNYRLYLKGHTGTAGKQSSLILHGADFSTKDADNDNCMCKCALMLTGGWWFDACGPSNLNGMFYTAGQNHGKLNGIKWHYFKGPSYSLRSTTMMIRPLDF

Legend:
[1] = molecular target: Tie2 (Ang1 or Ang2 binding); details: synthetic free form, ref Tournaire et al, 2004, cited from earlier work; for inhibition of Ang1 or Ang2 binding to Tie2: competition assays, tested up to 1 mM
Description: For therapeutic use, recombinant variants or mimetics of multimeric Ang1 have been engineered, including Ang1* and Ang-F1-Fc-F1/Bow-Ang1 (Davis et al, [2003]; Daly et al, [2013]), MAT-Ang1 and COMP-Ang1 (Cho et al, [2004]; Koh, [2013]). […] The main focus of the original paper that discovered T7 (Tournaire et al, [2004]) was actually on a different peptide called ‘T4’ (NLLMAAS) and its potential use as a Tie2 inhibitor/antagonist.

[2] = molecular target: T1, human Tie2-Fc (Fc-conjugated …); assay: SPR
[3] = molecular target: T2, mouse Tie2-Fc (Fc-conjugated …); assay: SPR
[4] = molecular target: T1, human Tie2-Fc (Fc-conjugated …); assay: SPR
[5] = molecular target: T2, mouse Tie2-Fc (Fc-conjugated …); assay: SPR

| Molecule | Ki ([1]; ELISA and SPR, read-out: Ki, competitive inhibition of Ang1 or Ang2 binding to Tie2) [nM] | inhibition of Ang1 or Ang2 binding to Tie2 [1] | Kd [2] [nM] | Kd [3] [nM] | koff [4] [s⁻¹] | koff [5] [s⁻¹] |
| --- | --- | --- | --- | --- | --- | --- |
| NLLMAAS [T4] | ~300000 | able to competitively inhibit Ang1 or Ang2 binding to Tie2 |  |  |  |  |
| HHHRHSF [T7, HHHRHSF, heptapeptide identified by phage display, synthetic free form] |  | did not inhibit Ang1 or Ang2 binding to Tie2 |  |  |  |  |
| B1 |  |  | 1.36 | 1.32 | 0.00361 | 0.00208 |
| B2 |  |  | 0.611 | 0.465 | 0.00232 | 0.00231 |
